Laboratory results as given in US11833164B2, “Methods of treating Fabry disease in patients having a mutation in the GLA gene” (Amicus Therapeutics, Inc., priority 2019, dated 2023).

System: mutant form of α-Gal A expressed in HEK-293 cells
Assay: HEK assay (GLP HEK / Migalastat Amenability Assay): α-Gal A activity in lysates of transiently transfected HEK-293 cells incubated with or without 10 μM migalastat
Format: cell-based, human
Conditions: for Absolute increase (% WT): 10 μM migalastat versus baseline; for Relative increase: 10 μM migalastat α-Gal A activity relative to baseline; for 10 μM migalastat α-Gal A activity (% WT): 5 days; for 10 μM migalastat α-Gal A activity (% WT) / Baseline α-Gal A activity (% WT): percentage of baseline wild-type α-Gal A activity; for 10 μM migalastat α-Gal A activity (% WT) / Baseline α-Gal A activity (% WT) / Baseline α-Gal A activity / 10 μM migalastat α-Gal A activity: mean ± SEM; for Baseline α-Gal A activity (% WT): absence of migalastat; for Baseline α-Gal A activity / 10 μM migalastat α-Gal A activity: lysates of HEK-293 cells transfected with the mutant form; for Baseline α-Gal A activity: incubated 5 days in the absence of migalastat; for 10 μM migalastat α-Gal A activity: incubated 5 days with 10 μM migalastat
In short: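 HEK-293 cells transiently transfected with mutant α-Gal A and incubated with or without 10 μM migalastat; lysate activity given as nmol free 4-MU released per mg protein per hour. Values are mean±SEM.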

| Molecule | Absolute increase (% WT) | Relative increase | 10 μM migalastat α-Gal A activity (% WT) | Baseline α-Gal A activity (% WT) | Baseline α-Gal A activity [nmol/mg/h] | 10 μM migalastat α-Gal A activity [nmol/mg/h] |
| --- | --- | --- | --- | --- | --- | --- |
| W162S (protein) MQLRNPELHLGCALALRFLALVSWDIPGARALDNGLARTPTMGWLHWERFMCNLDCQEEPDSCISEKLFMEMAELMVSEGWKDAGYEYLCIDDCWMAPQRDSEGRLQADPQRFPHGIRQLANYVHSKGLKLGIYADVGNKTCAGFPGSFGYYDIDAQTFADSGVDLLKFDGCYCDSLENLADGYKHMSLALNRTGRSIVYSCEWPLYMWPFQKPNYTEIRQYCNHWRNFADIDDSWKSIKSILDWTSFNQERIVDVAGPGGWNDPDMLVIGNFGLSWNQQVTQMALWAIMAAPLFMSNDLRHISPQAKALLQDKDVIAINQDPLGKQGYQLRQGDNFEVWERPLSGLAWAVAMINRQEIGGPRSYTIAVASLGKGVACNPACFITQLLPVKRKLGFYEWTSRLRSHINPTGTVLLQLENTMQMSLKDLL | 9.2 | 4.6 | 11.8 ± 0.8 | 2.6 ± 0.2 | 653 ± 38 | 3019 ± 210 |
| V164A (protein) MQLRNPELHLGCALALRFLALVSWDIPGARALDNGLARTPTMGWLHWERFMCNLDCQEEPDSCISEKLFMEMAELMVSEGWKDAGYEYLCIDDCWMAPQRDSEGRLQADPQRFPHGIRQLANYVHSKGLKLGIYADVGNKTCAGFPGSFGYYDIDAQTFADWGADLLKFDGCYCDSLENLADGYKHMSLALNRTGRSIVYSCEWPLYMWPFQKPNYTEIRQYCNHWRNFADIDDSWKSIKSILDWTSFNQERIVDVAGPGGWNDPDMLVIGNFGLSWNQQVTQMALWAIMAAPLFMSNDLRHISPQAKALLQDKDVIAINQDPLGKQGYQLRQGDNFEVWERPLSGLAWAVAMINRQEIGGPRSYTIAVASLGKGVACNPACFITQLLPVKRKLGFYEWTSRLRSHINPTGTVLLQLENTMQMSLKDLL | 7.5 | 1.3 | 32 ± 2.2 | 24.5 ± 1.8 | 6491 ± 691 | 8468 ± 832 |
| V164I (protein) MQLRNPELHLGCALALRFLALVSWDIPGARALDNGLARTPTMGWLHWERFMCNLDCQEEPDSCISEKLFMEMAELMVSEGWKDAGYEYLCIDDCWMAPQRDSEGRLQADPQRFPHGIRQLANYVHSKGLKLGIYADVGNKTCAGFPGSFGYYDIDAQTFADWGIDLLKFDGCYCDSLENLADGYKHMSLALNRTGRSIVYSCEWPLYMWPFQKPNYTEIRQYCNHWRNFADIDDSWKSIKSILDWTSFNQERIVDVAGPGGWNDPDMLVIGNFGLSWNQQVTQMALWAIMAAPLFMSNDLRHISPQAKALLQDKDVIAINQDPLGKQGYQLRQGDNFEVWERPLSGLAWAVAMINRQEIGGPRSYTIAVASLGKGVACNPACFITQLLPVKRKLGFYEWTSRLRSHINPTGTVLLQLENTMQMSLKDLL | 41.9 | 1.9 | 87.1 ± 8.2 | 45.1 ± 3.4 | 12164 ± 1271 | 23219 ± 2640 |
| V164L (protein) MQLRNPELHLGCALALRFLALVSWDIPGARALDNGLARTPTMGWLHWERFMCNLDCQEEPDSCISEKLFMEMAELMVSEGWKDAGYEYLCIDDCWMAPQRDSEGRLQADPQRFPHGIRQLANYVHSKGLKLGIYADVGNKTCAGFPGSFGYYDIDAQTFADWGLDLLKFDGCYCDSLENLADGYKHMSLALNRTGRSIVYSCEWPLYMWPFQKPNYTEIRQYCNHWRNFADIDDSWKSIKSILDWTSFNQERIVDVAGPGGWNDPDMLVIGNFGLSWNQQVTQMALWAIMAAPLFMSNDLRHISPQAKALLQDKDVIAINQDPLGKQGYQLRQGDNFEVWERPLSGLAWAVAMINRQEIGGPRSYTIAVASLGKGVACNPACFITQLLPVKRKLGFYEWTSRLRSHINPTGTVLLQLENTMQMSLKDLL | 35.0 | 1.7 | 86.2 ± 5.2 | 51.2 ± 3.8 | 22055 ± 1619 | 36486 ± 1952 |
| D165A (protein) MQLRNPELHLGCALALRFLALVSWDIPGARALDNGLARTPTMGWLHWERFMCNLDCQEEPDSCISEKLFMEMAELMVSEGWKDAGYEYLCIDDCWMAPQRDSEGRLQADPQRFPHGIRQLANYVHSKGLKLGIYADVGNKTCAGFPGSFGYYDIDAQTFADWGVALLKFDGCYCDSLENLADGYKHMSLALNRTGRSIVYSCEWPLYMWPFQKPNYTEIRQYCNHWRNFADIDDSWKSIKSILDWTSFNQERIVDVAGPGGWNDPDMLVIGNFGLSWNQQVTQMALWAIMAAPLFMSNDLRHISPQAKALLQDKDVIAINQDPLGKQGYQLRQGDNFEVWERPLSGLAWAVAMINRQEIGGPRSYTIAVASLGKGVACNPACFITQLLPVKRKLGFYEWTSRLRSHINPTGTVLLQLENTMQMSLKDLL | 4.4 | 5.2 | 5.4 ± 0.3 | 1 ± 0.1 | 271 ± 30 | 1397 ± 86 |
| D165E (protein) MQLRNPELHLGCALALRFLALVSWDIPGARALDNGLARTPTMGWLHWERFMCNLDCQEEPDSCISEKLFMEMAELMVSEGWKDAGYEYLCIDDCWMAPQRDSEGRLQADPQRFPHGIRQLANYVHSKGLKLGIYADVGNKTCAGFPGSFGYYDIDAQTFADWGVELLKFDGCYCDSLENLADGYKHMSLALNRTGRSIVYSCEWPLYMWPFQKPNYTEIRQYCNHWRNFADIDDSWKSIKSILDWTSFNQERIVDVAGPGGWNDPDMLVIGNFGLSWNQQVTQMALWAIMAAPLFMSNDLRHISPQAKALLQDKDVIAINQDPLGKQGYQLRQGDNFEVWERPLSGLAWAVAMINRQEIGGPRSYTIAVASLGKGVACNPACFITQLLPVKRKLGFYEWTSRLRSHINPTGTVLLQLENTMQMSLKDLL | 18.4 | 4.4 | 23.8 ± 1.6 | 5.4 ± 0.2 | 1442 ± 43 | 6279 ± 288 |
| L166M (protein) MQLRNPELHLGCALALRFLALVSWDIPGARALDNGLARTPTMGWLHWERFMCNLDCQEEPDSCISEKLFMEMAELMVSEGWKDAGYEYLCIDDCWMAPQRDSEGRLQADPQRFPHGIRQLANYVHSKGLKLGIYADVGNKTCAGFPGSFGYYDIDAQTFADWGVDMLKFDGCYCDSLENLADGYKHMSLALNRTGRSIVYSCEWPLYMWPFQKPNYTEIRQYCNHWRNFADIDDSWKSIKSILDWTSFNQERIVDVAGPGGWNDPDMLVIGNFGLSWNQQVTQMALWAIMAAPLFMSNDLRHISPQAKALLQDKDVIAINQDPLGKQGYQLRQGDNFEVWERPLSGLAWAVAMINRQEIGGPRSYTIAVASLGKGVACNPACFITQLLPVKRKLGFYEWTSRLRSHINPTGTVLLQLENTMQMSLKDLL | 48.8 | 1.8 | 104 ± 7.3 | 55.2 ± 4.5 | 15603 ± 1630 | 27922 ± 1578 |
| L166Q (protein) MQLRNPELHLGCALALRFLALVSWDIPGARALDNGLARTPTMGWLHWERFMCNLDCQEEPDSCISEKLFMEMAELMVSEGWKDAGYEYLCIDDCWMAPQRDSEGRLQADPQRFPHGIRQLANYVHSKGLKLGIYADVGNKTCAGFPGSFGYYDIDAQTFADWGVDQLKFDGCYCDSLENLADGYKHMSLALNRTGRSIVYSCEWPLYMWPFQKPNYTEIRQYCNHWRNFADIDDSWKSIKSILDWTSFNQERIVDVAGPGGWNDPDMLVIGNFGLSWNQQVTQMALWAIMAAPLFMSNDLRHISPQAKALLQDKDVIAINQDPLGKQGYQLRQGDNFEVWERPLSGLAWAVAMINRQEIGGPRSYTIAVASLGKGVACNPACFITQLLPVKRKLGFYEWTSRLRSHINPTGTVLLQLENTMQMSLKDLL | 29.2 | 2.6 | 47.6 ± 1.9 | 18.4 ± 1.2 | 5656 ± 325 | 14720 ± 616 |
| L167I (protein) MQLRNPELHLGCALALRFLALVSWDIPGARALDNGLARTPTMGWLHWERFMCNLDCQEEPDSCISEKLFMEMAELMVSEGWKDAGYEYLCIDDCWMAPQRDSEGRLQADPQRFPHGIRQLANYVHSKGLKLGIYADVGNKTCAGFPGSFGYYDIDAQTFADWGVDLIKFDGCYCDSLENLADGYKHMSLALNRTGRSIVYSCEWPLYMWPFQKPNYTEIRQYCNHWRNFADIDDSWKSIKSILDWTSFNQERIVDVAGPGGWNDPDMLVIGNFGLSWNQQVTQMALWAIMAAPLFMSNDLRHISPQAKALLQDKDVIAINQDPLGKQGYQLRQGDNFEVWERPLSGLAWAVAMINRQEIGGPRSYTIAVASLGKGVACNPACFITQLLPVKRKLGFYEWTSRLRSHINPTGTVLLQLENTMQMSLKDLL | 26.1 | 1.6 | 72.9 ± 2.7 | 46.8 ± 2.2 | 14763 ± 942 | 22948 ± 1321 |
